The text below walks through data of patent publication US20240270846A1 (published 2024).

Substitutions are numbered along the chain they refer to. Numbers in names are those of the source.

The chains are these.
B1: GLS3000 H27dI (Kabat) L chain altered form, one-arm antibody with CE115HA000 (antibody, human IgG1, kappa, L234A L235A, N297A, name in Kabat numbering)
heavy: QVQLVESGGGVVQPGRSLRLSCAASGFTFSNAWMHWVRQAPGKGLEWVAQIKAKSNNYATYYAESVKGRFTISRDDSKNSLYLQMNSLKTEDTAVYYCRYVHYGAYYGVDAWGQGTTVTVSSASTKGPSVFPLAPSSKSTSGGTAALGCLVKDYFPEPVTVSWNSGALTSGVHTFPAVLQSSGLYSLSSVVTVPSSSLGTQTYICNVNHKPSNTKVDKKVEPKSCDKTHTCPPCPAPEAAGGPSVFLFPPKPKDTLMISRTPEVTCVVVDVSHEDPEVKFNWYVDGVEVHNAKTKPREEQYASTYRVVSVLTVLHQDWLNGKEYKCKVSNKALPAPIEKTISKAKGQPREPQVYTLPPSRCELTKNQVSLSCAVKGFYPSDIAVEWESNGQPENNYKTTPPVLDSDGSFFLVSKLTVDKSRWQQGNVFSCSVMHEALHNHYTQKSLSLSPDYKDDDDK
chain: EPKSSDKTHTCPPCPAPELLGGPSVFLFPPKPKDTLMISRTPEVTCVVVDVSHEDPEVKFNWYVDGVEVHNAKTKPREEQYNSTYRVVSVLTVLHQDWLNGKEYKCKVSNKALPAPIEKTISKAKGQPREPQVCTLPPSRDELTKNQVSLWCLVKGFYPSDIAVEWESNGQPENNYKTTPPVLDSDGSFFLYSKLTVDKSRWQQGNVFSCSVMHEALHNRYTQKSLSLSP
light: DIVMTQSPLSLPVTPGEPASISCRSSQSLVISNRNTYLHWYQQKPGQAPRLLIYKVSNRFSGVPDRFSGSGSGTDFTLKISRVEAEDVGVYYCGQGTQVPYTFGQGTKLEIKRTVAAPSVFIFPPSDEQLKSGTASVVCLLNNFYPREAKVQWKVDNALQSGNSQESVTEQDSKDSTYSLSSTLTLSKADYEKHKVYACEVTHQGLSSPVTKSFNRGEC
notes: one-arm antibody
B2: GLS3000 L27bI (Kabat) L chain altered form, one-arm antibody with CE115HA000 (antibody, human IgG1, kappa, L234A L235A, N297A, name in Kabat numbering)
heavy: B1 heavy
chain: B1 chain
light: B1 light with L29I, I31H
notes: one-arm antibody
B3: GLS3000 L27bV (Kabat) L chain altered form, one-arm antibody with CE115HA000 (antibody, human IgG1, kappa, L234A L235A, N297A, name in Kabat numbering)
heavy: B1 heavy
chain: B1 chain
light: B1 light with L29V, I31H
notes: one-arm antibody
B4: GLS3000 L27bY (Kabat) L chain altered form, one-arm antibody with CE115HA000 (antibody, human IgG1, kappa, L234A L235A, N297A, name in Kabat numbering)
heavy: B1 heavy
chain: B1 chain
light: B1 light with L29Y, I31H
notes: one-arm antibody
B5: GLS3000 H27dY (Kabat) L chain altered form, one-arm antibody with CE115HA000 (antibody, human IgG1, kappa, L234A L235A, N297A, name in Kabat numbering)
heavy: B1 heavy
chain: B1 chain
light: B1 light with I31Y
notes: one-arm antibody
B6: GLS3000 N28D (Kabat) L chain altered form, one-arm antibody with CE115HA000 (antibody, human IgG1, kappa, L234A L235A, N297A, name in Kabat numbering)
heavy: B1 heavy
chain: B1 chain
light: B1 light with I31H, N33D
notes: one-arm antibody
B7: GLS3000 H27dN (Kabat) L chain altered form, one-arm antibody with CE115HA000 (antibody, human IgG1, kappa, L234A L235A, N297A, name in Kabat numbering)
heavy: B1 heavy
chain: B1 chain
light: B1 light with I31N
notes: one-arm antibody
B8: GLS3000 H27dV (Kabat) L chain altered form, one-arm antibody with CE115HA000 (antibody, human IgG1, kappa, L234A L235A, N297A, name in Kabat numbering)
heavy: B1 heavy
chain: B1 chain
light: B1 light with I31V
notes: one-arm antibody
B9: GLS3000 L27bM (Kabat) L chain altered form, one-arm antibody with CE115HA000 (antibody, human IgG1, kappa, L234A L235A, N297A, name in Kabat numbering)
heavy: B1 heavy
chain: B1 chain
light: B1 light with L29M, I31H
notes: one-arm antibody
B10: GLS3000 L27bE (Kabat) L chain altered form, one-arm antibody with CE115HA000 (antibody, human IgG1, kappa, L234A L235A, N297A, name in Kabat numbering)
heavy: B1 heavy
chain: B1 chain
light: B1 light with L29E, I31H
notes: one-arm antibody
B11: GLS3000 N28G (Kabat) L chain altered form, one-arm antibody with CE115HA000 (antibody, human IgG1, kappa, L234A L235A, N297A, name in Kabat numbering)
heavy: B1 heavy
chain: B1 chain
light: B1 light with I31H, N33G
notes: one-arm antibody
B12: GLS3000 L33A (Kabat) L chain altered form, one-arm antibody with CE115HA000 (antibody, human IgG1, kappa, L234A L235A, N297A, name in Kabat numbering)
heavy: B1 heavy
chain: B1 chain
light: B1 light with I31H, L38A
notes: one-arm antibody
B13: GLS3000 K50A (Kabat) L chain altered form, one-arm antibody with CE115HA000 (antibody, human IgG1, kappa, L234A L235A, N297A, name in Kabat numbering)
heavy: B1 heavy
chain: B1 chain
light: B1 light with I31H, K55A
notes: one-arm antibody
B14: GLS3000 N28A (Kabat) L chain altered form, one-arm antibody with CE115HA000 (antibody, human IgG1, kappa, L234A L235A, N297A, name in Kabat numbering)
heavy: B1 heavy
chain: B1 chain
light: B1 light with I31H, N33A
notes: one-arm antibody
B15: GLS3000 L27bP (Kabat) L chain altered form, one-arm antibody with CE115HA000 (antibody, human IgG1, kappa, L234A L235A, N297A, name in Kabat numbering)
heavy: B1 heavy
chain: B1 chain
light: B1 light with L29P, I31H
notes: one-arm antibody
B16: GLS3000 L27bW (Kabat) L chain altered form, one-arm antibody with CE115HA000 (antibody, human IgG1, kappa, L234A L235A, N297A, name in Kabat numbering)
heavy: B1 heavy
chain: B1 chain
light: B1 light with L29W, I31H
notes: one-arm antibody
B17: GLS3000 H27dL (Kabat) L chain altered form, one-arm antibody with CE115HA000 (antibody, human IgG1, kappa, L234A L235A, N297A, name in Kabat numbering)
heavy: B1 heavy
chain: B1 chain
light: B1 light with I31L
notes: one-arm antibody
B18: GLS3000 L27bS (Kabat) L chain altered form, one-arm antibody with CE115HA000 (antibody, human IgG1, kappa, L234A L235A, N297A, name in Kabat numbering)
heavy: B1 heavy
chain: B1 chain
light: B1 light with L29S, I31H
notes: one-arm antibody
B19: GLS3000 L27bF (Kabat) L chain altered form, one-arm antibody with CE115HA000 (antibody, human IgG1, kappa, L234A L235A, N297A, name in Kabat numbering)
heavy: B1 heavy
chain: B1 chain
light: B1 light with L29F, I31H
notes: one-arm antibody
B20: GLS3000 H27dR (Kabat) L chain altered form, one-arm antibody with CE115HA000 (antibody, human IgG1, kappa, L234A L235A, N297A, name in Kabat numbering)
heavy: B1 heavy
chain: B1 chain
light: B1 light with I31R
notes: one-arm antibody
B21: GLS3000 H27dK (Kabat) L chain altered form, one-arm antibody with CE115HA000 (antibody, human IgG1, kappa, L234A L235A, N297A, name in Kabat numbering)
heavy: B1 heavy
chain: B1 chain
light: B1 light with I31K
notes: one-arm antibody
B22: GLS3000 H34A (Kabat) L chain altered form, one-arm antibody with CE115HA000 (antibody, human IgG1, kappa, L234A L235A, N297A, name in Kabat numbering)
heavy: B1 heavy
chain: B1 chain
light: B1 light with I31H, H39A
notes: one-arm antibody
B23: GLS3000 H27dW (Kabat) L chain altered form, one-arm antibody with CE115HA000 (antibody, human IgG1, kappa, L234A L235A, N297A, name in Kabat numbering)
heavy: B1 heavy
chain: B1 chain
light: B1 light with I31W
notes: one-arm antibody
B24: GLS3000 N28F (Kabat) L chain altered form, one-arm antibody with CE115HA000 (antibody, human IgG1, kappa, L234A L235A, N297A, name in Kabat numbering)
heavy: B1 heavy
chain: B1 chain
light: B1 light with I31H, N33F
notes: one-arm antibody
B25: GLS3000 N28E (Kabat) L chain altered form, one-arm antibody with CE115HA000 (antibody, human IgG1, kappa, L234A L235A, N297A, name in Kabat numbering)
heavy: B1 heavy
chain: B1 chain
light: B1 light with I31H, N33E
notes: one-arm antibody
B26: GLS3000 H27dS (Kabat) L chain altered form, one-arm antibody with CE115HA000 (antibody, human IgG1, kappa, L234A L235A, N297A, name in Kabat numbering)
heavy: B1 heavy
chain: B1 chain
light: B1 light with I31S
notes: one-arm antibody
B27: GLS3000 H27dT (Kabat) L chain altered form, one-arm antibody with CE115HA000 (antibody, human IgG1, kappa, L234A L235A, N297A, name in Kabat numbering)
heavy: B1 heavy
chain: B1 chain
light: B1 light with I31T
notes: one-arm antibody
B28: GLS3000 H27dP (Kabat) L chain altered form, one-arm antibody with CE115HA000 (antibody, human IgG1, kappa, L234A L235A, N297A, name in Kabat numbering)
heavy: B1 heavy
chain: B1 chain
light: B1 light with I31P
notes: one-arm antibody
B29: GLS3000 L27bD (Kabat) L chain altered form, one-arm antibody with CE115HA000 (antibody, human IgG1, kappa, L234A L235A, N297A, name in Kabat numbering)
heavy: B1 heavy
chain: B1 chain
light: B1 light with L29D, I31H
notes: one-arm antibody
B30: GLS3000 H27dQ (Kabat) L chain altered form, one-arm antibody with CE115HA000 (antibody, human IgG1, kappa, L234A L235A, N297A, name in Kabat numbering)
heavy: B1 heavy
chain: B1 chain
light: B1 light with I31Q
notes: one-arm antibody
B31: GLS3000 N28H (Kabat) L chain altered form, one-arm antibody with CE115HA000 (antibody, human IgG1, kappa, L234A L235A, N297A, name in Kabat numbering)
heavy: B1 heavy
chain: B1 chain
light: B1 light with I31H, N33H
notes: one-arm antibody
B32: GLS3000 H27dM (Kabat) L chain altered form, one-arm antibody with CE115HA000 (antibody, human IgG1, kappa, L234A L235A, N297A, name in Kabat numbering)
heavy: B1 heavy
chain: B1 chain
light: B1 light with I31M
notes: one-arm antibody

T1 sequence (P07766 23-126): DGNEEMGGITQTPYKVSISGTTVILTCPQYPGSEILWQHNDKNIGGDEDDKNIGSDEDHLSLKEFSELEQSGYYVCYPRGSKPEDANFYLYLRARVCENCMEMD

The test has as its target T1, CD3 epsilon homodimer protein (UniProt P07766 23-126).
T1 construct: construct not described; homodimer as printed; also called CD3 (CD3 epsilon)
The test is described as follows: SPR Biacore T200, CD3 epsilon homodimer immobilized; vs unaltered GLS3000.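 Further: antibody variants flowed as analyte over CD3 epsilon homodimer amine-coupled to a CM4 chip, at 25 °C in HBS-EP+ running buffer, fitted with Biacore T200 Evaluation Software.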
B1: the “KD ratio to GLS3000 (Affinity up)” value is 7.77. Turning to B2, the “KD ratio to GLS3000 (Affinity up)” value came to 1.17.

As to B3, the “KD ratio to GLS3000 (Affinity up)” value came out at 1.11.

Turning to B4, the “KD ratio to GLS3000 (Affinity up)” value stood at 22.2.

As for B5, the “KD ratio to GLS3000 (Affinity up)” value was 1.98. Take B6: the “KD ratio to GLS3000 (Affinity up)” value worked out at 4460. Consider B7, for which the “KD ratio to GLS3000 (Affinity up)” value stood at 3.43. As to B8, the “KD ratio to GLS3000 (Affinity up)” value amounted to 354.

With B9, the “KD ratio to GLS3000 (Affinity up)” value was determined as 1.31. As for B10, the “KD ratio to GLS3000 (Affinity up)” value is 26.8. With B11, the “KD ratio to GLS3000 (Affinity up)” value stood at 2.41. Regarding B12, the “KD ratio to GLS3000 (Affinity up)” value turned out to be 0.82.

Consider B13, for which the “KD ratio to GLS3000 (Affinity up)” value stood at 59.5.

With B14, the “KD ratio to GLS3000 (Affinity up)” value is 4.18.

For B15, the “KD ratio to GLS3000 (Affinity up)” value stood at 0.96. For B16, the “KD ratio to GLS3000 (Affinity up)” value is 23.6. In the case of B17, the “KD ratio to GLS3000 (Affinity up)” value worked out at 3.37. With B18 the figure was 0.9; with B19, 2.67; with B20, 2.35. With B21, the “KD ratio to GLS3000 (Affinity up)” value came to 3.8. Then B22, with 1.18.

As for B23, the “KD ratio to GLS3000 (Affinity up)” value turned out to be 1.86. In the case of B24, the “KD ratio to GLS3000 (Affinity up)” value came out at 2.59.

Turning to B25, the “KD ratio to GLS3000 (Affinity up)” value came out at 5.47. Regarding B26, the “KD ratio to GLS3000 (Affinity up)” value was 3.05. Consider B27, for which the “KD ratio to GLS3000 (Affinity up)” value worked out at 13000. Take B28: the “KD ratio to GLS3000 (Affinity up)” value came to 9.21. For the molecule B29, the “KD ratio to GLS3000 (Affinity up)” value worked out at 25.1.

For B30, the “KD ratio to GLS3000 (Affinity up)” value came to 7.48. On to B31, for which the “KD ratio to GLS3000 (Affinity up)” value was 3.

For B32, the “KD ratio to GLS3000 (Affinity up)” value was 3.43.
